# According to paper PMC5216932:
# Target: Fas/CD95 (human (endogenous in U-2 OS)) (UniProt P25445)
# Chain of UniProt P25445 (P25445 26-335): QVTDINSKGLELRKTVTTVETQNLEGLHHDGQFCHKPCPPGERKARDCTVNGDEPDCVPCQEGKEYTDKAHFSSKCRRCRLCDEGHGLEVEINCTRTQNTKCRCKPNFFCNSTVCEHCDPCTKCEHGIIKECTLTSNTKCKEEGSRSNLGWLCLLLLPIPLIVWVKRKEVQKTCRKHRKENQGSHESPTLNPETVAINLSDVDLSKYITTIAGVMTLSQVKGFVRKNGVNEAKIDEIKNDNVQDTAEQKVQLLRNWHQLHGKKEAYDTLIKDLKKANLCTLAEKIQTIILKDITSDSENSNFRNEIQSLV
substance,measurement,value
Fas ligand (from UniProt P48023 1-281),"U-2 OS cell death with no granzyme-B FRET signal change in co-culture with primary NK cells (3-day cultured in IL-2), with 1.5 μg/ml anti-Fas neutralizing antibody (clone ZB4); control about 65%",28%
